Results taken from the DeepSol protein solubility set.

Assay: soluble on expression in E. coli; label from the status in PepcDB or PDB records

Soluble on expression in E. coli, not soluble:
MGSDKIHHHHHHMKKYQRLAEQIREQIASGVWQPGDRLPSLREQVASSGMSFMTVGHAYQLLESQGRIIARPQSGYYVAPHPVCRSVATAAHVIRDEAVDINTYIFEMLQASRDTSVVPFASAFPDPRLFPLPQLNRSLAQVSKTATAMSVIENLPPGNAELRYAIARRYAQQGITVSPDEIVITAGALEALNLSLQAVTAPGDWVVVENPCFYGALQALERLRLKALSIPTDVKEGIDLMALEQALQEYPVKACWLMTNSQNPLGFTLSAEKKARLVALLTHHNVTLIEDDVYSELYFGREKPLPAKAWDRDDTVLHCSSFSKCLVPGFRIGWVAGGSHARQIQRLQLMSTLSTSSPMQLALVDYLSTRRYDAHLRRLRRQLAERKQQAWQTLLRHLPAEVKIHHNDSGYFLWLELPEQLDAGELSAKALEHLISIAPGKMFSTSGAWTRFFRFNTAWHWGEREEQAVKQLGSLIREMLSAKSLV
MGSDKIHHHHHHMKLKTKTMEWSGNSLKLLDQRKLPFIEEYVECKTHEEVAHAIKEMIVRGAPAIGVAAAFGYVLGLRDYKTGSLTDWMKQVKETLARTRPTAVNLFWALNRMEKVFFENADRENLFEILENEALKMAYEDIEVNKAIGKNGAQLIKDGSTILTHCNAGALATVDYGTALGVIRAAVESGKRIRVFADETRPYLQGARLTAWELMKDGIEVYVITDNMAGWLMKRGLIDAVVVGADRIALNGDTANKIGTYSLAVLAKRNNIPFYVAAPVSTIDPTIRSGEEIPIEERRPEEVTHCGGNRIAPEGVKVLNPAFDVTENTLITAIITEKGVIRPPFEENIKKILEV
MGSDKIHHHHHHMKLPANQEKNQPVPVVKPSSTLEEINQNAAGIDLGSGEHWVCVPPDRADKNVRRFGCFTPDLIAMADWLKECRINTVAMEATGVYWIPVFQVLEAKGFEVKLVNAHHVKTVPGRKTDVLDCQWLQKLHTYGLLSGSFRPEDQVCVLRSYIRQRDTLIKSASAHIQRMQKALIQMNLHLHKVISDVTGLTGMKIIKAIVAGEQDPQVLASLKDPHIKSSTADIAASLTGDYRREHLFVLQQELTLYEIYQQQIIAVDAEIEKCLAYA
MGSDKIHHHHHHMKLRRNMKWNDEGKRIVEMLKLRTPPVGVKFFQEKYEPERAFRPSKYGIKMAVCQAIAFARYIGRTVVLEAEDFGCPPAMLLYGVAEYEGSLKDILVGAQWLKDESCEVAEQKLPLGKYKSFVFGDMTKMAEEPEAVMIFGTPAQIGRLIQAATYFGGAVKANLTAKTASCAEALFPALRGEVAIAVPGAGDRVFAAIQETEMIFAMPYAWTGKILEGLENAGRGANISYPPSPFLMFTPRFPKHYRETAEKFKLV
MGSDKIHHHHHHMKMVTKLSIVLGLIATLVLSGCQKHDTHEEMPHYAATTPFREDTSILEPYVCQIRAIRHIEVRSLEKGYLTHIFIDEGQWVKKGQPMFKIMPNVYQAELLTAEAEAQNVNIEYLNTKALADKNIVSANELALAKAKLDKANAQVNLAKTHLGFTDIRAPFDGITDHLAVRIGSLLDEDDLLTELSDIAHLWVYFNVPEAKYLDFIRREKGKTNEKVQLRMANGEIYEHTGVIETIVGDFYNTSGNIQFRALFENPDRVLRHGQTGTILMTVPYPNAMLIPQKATFEIMDKIYLYVVNKEEKVEQRLIQIEAELPHMFIVKSGVNDGERILIEGMRKVSPGDKVMIDLKPPQEVRSELMKLYTE
MGSDKIHHHHHHMKNGKISESVLKRSVLKQLHTKSDRILFKPAVGEDCAVISMQAGGKTKLVTATQTFTLDVSDKHVRANCAVYDALNNIYAMGADPVGIELALLVPTTENEAVLRETVRAIDAVCEKAGIVVLGGHTQVSRAVKNIVVTVTAIGEAYEQALTPSSAAAPGMDVIVTGYVGLEGTAILANEKRTELETRFSKAFIDKSAAYIDHISTAMEAASAIGAGVAAIHDASQGGIFGALWDMAEASGIGLDIDLKKLPIRQDTIEISEFFDINPYKLLSGGSLIIIAADGTRVVRELEKTGQNAVIVGATTDSNDRVLISGEERRFLETAQTDEIYKVFN
MGSDKIHHHHHHMKNIHSIEFYTGSKEELLPDFEKDFPYIASRAELDKYIGGYVPWHWHRTVELFYMESGSIEYDTPGGKILFPAGSGGMINPNVLHMTKAISQREKNIQLLHIFDVSLLAGEQGSRIEQKYIAPVITAPQIEVIPLFPGNAEEERILKLLAASFRLSSDEFGYEIKLREALTEIWLMLFELSCSMREKKGEHNKSNDKIKLMMIYIHEHYREKISILELAAAAYLSERECYRVFHDCLHMTPVEYITTYRLQIACQMLAKGQEPITVISHECGLGSSSYFGKVFREYAYCSPTEYRKKWQNSDM
